Target: T1, CD47, biotin-conjugated antigen (Homo sapiens, UniProt Q08722, biotin-conjugated)
T1 construct: CD47; Probably the extracellular domain (surmise); also called antigen CD47; source: bought: Sino Biological Inc
Test: BLI; ForteBio Octet RED96; streptavidin-coated tips loaded with biotin-conjugated PD-L1 or CD47 (100 nM); antibodies or fusion proteins in solution at 25, 50, 75, 100, 125 and 150 nM; dissociation in PBS; 37 °C; global fit, KD = kd/ka
Conditions: both partners purified

Kd: 4.08 pM | koff: 3.99e-07 s⁻¹ | kon: 97900 M⁻¹ s⁻¹
B1: anti-CD47 mAb (B6H12), positive control antibody made in-house (antibody, V domains shown)
VH: EVQLVESGGGLVQPGGSLRLSCAASGFTFSGYGMSWVRQAPGKGLEWVATITSGGTYTYYPDSVKGRFTISRDNAKNSLYLQMNSLRAEDTAVYYCARSLAGNAMDYWGQGTLVTVSS
VL: EIVLTQSPATLSLSPGERATLSCRASQTISDYLHWYQQKPGQAPRLLIKFASQSISGIPARFSGSGSGTDFTLTISSLEPEDFAVYYCQNGHGFPRTFGQGTKVEIK
notes: source: produced in-house from plasmids pUC57/B6H12-Lc and pUC57/B6H12-Hc

From publication PMC9405206 (Biomedicines, 2022)
